Like-named read-outs stand apart in the source and are kept apart here.
Legend:
[1] = biological target: T1, recombinant human APRIL (human, UniProt O75888 105-250, limits assumed); assay: cell-based or functional assay
T1 sequence (looked up): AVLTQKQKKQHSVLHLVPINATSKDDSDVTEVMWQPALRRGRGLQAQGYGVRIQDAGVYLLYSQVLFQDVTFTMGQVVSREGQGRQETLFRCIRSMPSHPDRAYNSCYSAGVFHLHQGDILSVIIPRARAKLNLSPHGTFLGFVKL

[2] = biological target: T2, recombinant human BAFF (human, UniProt Q9Y275 134-285); assay: cell-based or functional assay
[3] = biological target: T1, recombinant human APRIL; assay: cell-based or functional assay; remark: listed apart in the source
[4] = biological target: T2, recombinant human BAFF; assay: cell-based or functional assay; remark: listed apart in the source
[5] = biological target: T2, recombinant human BAFF; assay: SPR
[6] = biological target: T2, recombinant human BAFF; assay: cell-based or functional assay; remark: listed apart in the source
[7] = biological target: T1, recombinant human APRIL; assay: cell-based or functional assay; remark: listed apart in the source
[8] = biological target: cynomolgus monkey APRIL (cynomolgus monkey); assay: cell-based or functional assay
[9] = biological target: T2, recombinant human BAFF; assay: cell-based or functional assay; remark: listed apart in the source
[10] = biological target: cynomolgus monkey BAFF (cynomolgus monkey, UniProt A0A2K5V2X4 134-285); assay: cell-based or functional assay
[11] = biological target: rat BAFF (rat); assay: cell-based or functional assay
[12] = biological target: T3, recombinant mouse APRIL (mouse, UniProt Q9D777 96-241, limits assumed); assay: cell-based or functional assay
T3 sequence (looked up): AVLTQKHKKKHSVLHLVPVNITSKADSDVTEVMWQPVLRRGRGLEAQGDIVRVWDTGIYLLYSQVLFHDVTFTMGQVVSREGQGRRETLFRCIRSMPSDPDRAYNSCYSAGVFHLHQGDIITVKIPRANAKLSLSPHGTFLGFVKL

[13] = biological target: rat APRIL (rat); assay: cell-based or functional assay
[14] = biological target: T4, recombinant mouse BAFF (mouse, UniProt Q9WU72 127-309); assay: cell-based or functional assay
[15] = biological target: T1, recombinant human APRIL; assay: cell-based or functional assay; remark: listed apart in the source
[16] = biological target: T2, recombinant human BAFF; assay: cell-based or functional assay; remark: listed apart in the source
[17] = biological target: T1, recombinant human APRIL; assay: SPR, apparent (kd app)
[18] = biological target: T1, recombinant human APRIL; assay: cell-based or functional assay; remark: listed apart in the source
[19] = biological target: T2, recombinant human BAFF; assay: cell-based or functional assay; remark: listed apart in the source
[20] = biological target: T2, recombinant human BAFF; assay: SPR; remark: listed apart in the source
[21] = biological target: T2, recombinant human BAFF; assay: cell-based or functional assay; remark: listed apart in the source
[22] = biological target: T1, recombinant human APRIL; assay: cell-based or functional assay; remark: listed apart in the source
[23] = biological target: T2, recombinant human BAFF; assay: cell-based or functional assay; remark: listed apart in the source
[24] = biological target: T1, recombinant human APRIL; assay: cell-based or functional assay; remark: listed apart in the source
[25] = biological target: T2, recombinant human BAFF; assay: cell-based or functional assay; remark: listed apart in the source
[26] = biological target: T1, recombinant human APRIL; assay: SPR, apparent (KD app)
[27] = biological target: single chain APRIL-BAFF-BAFF heterotrimer (ABB) (human, UniProt O75888 111-250; Q9Y275 140-285; Q9Y275 140-285, limits assumed); assay: cell-based or functional assay
[28] = biological target: single chain BAFF-APRIL-APRIL heterotrimer (BAA) (human, UniProt Q9Y275 140-285; O75888 111-250; O75888 111-250, limits assumed); assay: cell-based or functional assay
[29] = biological target: single chain BAFF homotrimer (BAFF-BAFF-BAFF) (human, UniProt Q9Y275 140-285, limits assumed); assay: cell-based or functional assay
[30] = biological target: BAFF 60-mer (human, UniProt Q9Y275 134-285, limits assumed); assay: cell-based or functional assay
[31] = biological target: T1, recombinant human APRIL; assay: SPR, apparent (ka app); apparent (ka app)
[32] = biological target: T1, recombinant human APRIL; assay: cell-based or functional assay; remark: listed apart in the source
[33] = biological target: T2, recombinant human BAFF; assay: cell-based or functional assay; remark: listed apart in the source
[34] = biological target: T3, recombinant mouse APRIL; assay: cell-based or functional assay; remark: listed apart in the source
[35] = biological target: T4, recombinant mouse BAFF; assay: cell-based or functional assay; remark: listed apart in the source
[36] = biological target: T4, recombinant mouse BAFF; assay: cell-based or functional assay; remark: listed apart in the source

T4 sequence (Q9WU72 127-309 limits assumed): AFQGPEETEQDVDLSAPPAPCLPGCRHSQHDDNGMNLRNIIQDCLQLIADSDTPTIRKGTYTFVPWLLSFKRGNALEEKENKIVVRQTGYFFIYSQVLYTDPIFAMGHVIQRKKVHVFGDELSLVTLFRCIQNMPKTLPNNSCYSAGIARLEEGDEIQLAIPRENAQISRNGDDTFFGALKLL

B1: 7 TACI CRD1/CRD2-Fc (Fc fusion)
variant TACI CRD1/CRD2 - linker - Fc chain: VAMRSCPEEQYWDPLLGTCMSCKTICNHQSQRTCAAFCRSLSCRKEQGKFYDHLLRDCISCASICGQHPKQCDYFCENKLRSGSGGGGSEPKSSDKTHTCPPCPAPEAEGAPSVFLFPPKPKDTLMISRTPEVTCVVVDVSHEDPEVKFNWYVDGVEVHNAKTKPREEQYNSTYRVVSVLTVLHQDWLNGKEYKCKVSNKALPAPIEKTISKAKGQPREPQVYTLPPSRDELTKNQVSLTCLVKGFYPSDIAVEWESNGQPENNYKTTPPVLDSDGSFFLYSKLTVDKSRWQQGNVFSCSVMHEALHNHYTQKSLSLSPG
IC50 (read off the curve), human APRIL, NF-κB luciferase reporter, Jurkat/TACI/NF-κB cells [1]: ~3 nM
IC50 (read off the curve), human BAFF, NF-κB luciferase reporter, Jurkat/TACI/NF-κB cells [2]: ~2 nM

B2: 26 TACI CRD2-Fc (Fc fusion)
chain: SLSCRKEQGEYYDHLLRDCISCASICGQHPKQCADFCENKLRSGSGGGGSEPKSSDKTHTCPPCPAPEAEGAPSVFLFPPKPKDTLMISRTPEVTCVVVDVSHEDPEVKFNWYVDGVEVHNAKTKPREEQYNSTYRVVSVLTVLHQDWLNGKEYKCKVSNKALPAPIEKTISKAKGQPREPQVYTLPPSRDELTKNQVSLTCLVKGFYPSDIAVEWESNGQPENNYKTTPPVLDSDGSFFLYSKLTVDKSRWQQGNVFSCSVMHEALHNHYTQKSLSLSPG
notes: also called TACI (26)-Fc_73; 26 TACI-Fc
IC50, Jurkat/NF-kB/TACI reporter [3]: 179 nM
IC50 relative to TACI 30-110-Fc [3]: 0.05 ratio
IC50, Jurkat/NF-kB/TACI reporter [4]: 1220 nM
IC50 relative to TACI 30-110-Fc [4]: 0.21 ratio
fold better affinity than telitacicept [5]: ~8 fold
IC50 (read off the curve), human BAFF, NF-κB luciferase reporter, Jurkat/NF-κB/TACI cells [6]: ~1 nM
IC50, Jurkat/NF-kB/TACI reporter [7]: 3.4 nM
IC50, Jurkat/NF-kB/TACI reporter [8]: 3.3 nM
IC50, Jurkat/NF-kB/TACI reporter [9]: 2.8 nM
IC50, Jurkat/NF-kB/TACI reporter [10]: 1.9 nM
IC50, Jurkat/NF-kB/TACI reporter [11]: 3.8 nM
IC50, Jurkat/NF-kB/TACI reporter [12]: 24.5 nM
IC50, Jurkat/NF-kB/TACI reporter [13]: 22.7 nM
IC50, Jurkat/NF-kB/TACI reporter [14]: 15.2 nM
IC50, Jurkat/NF-kB/TACI reporter [15]: 214 nM
IC50 relative to TACI 30-110 [15]: 0.05 ratio
IC50, Jurkat/NF-kB/TACI reporter [16]: 1270 nM
IC50 relative to TACI 30-110 [16]: 0.28 ratio
koff [17]: 0.007 s⁻¹
IC50, Jurkat/NF-kB/TACI reporter [18]: 1.76 nM
IC50, Jurkat/NF-kB/TACI reporter [19]: 1.34 nM
Kd [20]: 0.0593 nM
koff [20]: 3.67e-05 s⁻¹
kon [20]: 619000 M⁻¹ s⁻¹
IC50 (read off the curve), human BAFF, NF-κB luciferase reporter, TACI/Jurkat/NF-κB cells [21]: 1 to 2 nM
IC50, Jurkat/NF-kB/TACI reporter [22]: 9.21 nM
IC50 relative to WT TACI (68-110)-Fc (Δ WT) [22]: 0.75 ratio
IC50, Jurkat/NF-kB/TACI reporter [23]: 1.55 nM
IC50 relative to WT TACI (68-110)-Fc (Δ WT) [23]: 0.84 ratio
fold better neutralization than the anti-APRIL mAb [24]: 5.7 fold
fold better neutralization than belimumab [25]: 3.4 fold
Kd [26]: 0.001 nM
IC50, TACI/Jurkat/NF-kB reporter [27]: 0.103 nM
IC50, TACI/Jurkat/NF-kB reporter [28]: < 0.016 nM
IC50, TACI/Jurkat/NF-kB reporter [29]: 3.36 nM
IC50, TACI/Jurkat/NF-kB reporter [30]: 14.7 nM
kon [31]: 7e+09 M⁻¹ s⁻¹
IC50, TACI/Jurkat/NF-kB reporter [32]: 3.8 nM
IC50, TACI/Jurkat/NF-kB reporter [33]: 1.4 nM
IC50, TACI/Jurkat/NF-kB reporter [34]: 0.9 nM
IC50, TACI/Jurkat/NF-kB reporter [35]: 1 nM
IC50 (read off the curve), mouse BAFF, NF-κB luciferase reporter, Jurkat/NF-κB/TACI cells [36]: ~1 nM
